Target: T1, tumor-associated antigen RG1 (Homo sapiens (Human), UniProt Q9BUD6 27-331)
T1 construct: Coated directly on 96-well plates at 1 ug/ml; also called RGI
T1 sequence: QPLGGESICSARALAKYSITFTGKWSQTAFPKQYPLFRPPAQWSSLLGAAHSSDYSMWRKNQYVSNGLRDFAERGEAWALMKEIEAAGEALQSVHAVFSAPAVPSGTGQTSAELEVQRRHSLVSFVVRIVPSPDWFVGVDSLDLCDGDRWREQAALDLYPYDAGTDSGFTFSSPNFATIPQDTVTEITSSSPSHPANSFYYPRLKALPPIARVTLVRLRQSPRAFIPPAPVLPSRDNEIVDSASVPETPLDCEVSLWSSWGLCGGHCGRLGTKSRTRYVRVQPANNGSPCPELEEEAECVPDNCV
Experiment: RG1-binding ELISA, RG1 coated on plate, 4-parameter fit
Procedure: RG1-binding ELISA. A bispecific antibody containing Linker 1, anti-RG1 antibody 19G9, and polyclonal nonimmune control human IgG kappa were analyzed for binding to RG-1. Curve fitting of the data was performed using a 4-parameter equation with the Solver function in Microsoft Excel.
Ninety-six well plates were coated with RG1 (1 μg/ml) by overnight incubation, and the plates were then washed (5×) with PBS containing 0.5% Tween-20. Samples and controls (serially diluted) were added to the wells and incubated for 1 hr, followed by washes (5×) with PBS containing 0.5% Tween-20. Horserandish peroxidase (HRP)-conjugated anti-human IgG or HRP-conjugated anti-human Fab were diluted in PBS (1:5000) and added to each well. Following a 1 hr incubation, the plates were washed again. Amplex Red (10 μg/ml) was added to each well, and the signal was read using a plate reader. The data was analyzed using Softmax (Molecular Devices, Sunnyvale, Calif.).

B1: anti-RG1 IgG 19G9 (antibody, V domains shown)
VH: QVQLVQSGGGLVQPGGSLRLSCAGSGFTFSSYVMHWLRQAPGKGLEWVSVIGTGGVTHYADSVKGRFTISRDNAKNSLYLQMNSLRAEDTAVYYCARWGYYGSGSYENDAFDIWGQGTMVTVSS
VL: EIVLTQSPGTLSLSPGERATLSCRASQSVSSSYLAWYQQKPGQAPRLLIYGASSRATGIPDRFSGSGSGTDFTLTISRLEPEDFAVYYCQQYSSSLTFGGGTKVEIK
- IC50: 1.4 nM

Reference: patent publication US20110229476A1 (Bayer, published 2011)
